Data published in patent US20260234228A1 (GENOME, published 2026).

T1: mouse CNTN4 overexpressed on 293F cells (mouse, UniProt Q69Z26 19-1000)
T1 construct: whole, on cells; Overexpressed on 293F cells; the construct is not described; also called Mouse CNTN4 cell; mouse antigen-overexpressing 293F cells
T1 sequence (looked up): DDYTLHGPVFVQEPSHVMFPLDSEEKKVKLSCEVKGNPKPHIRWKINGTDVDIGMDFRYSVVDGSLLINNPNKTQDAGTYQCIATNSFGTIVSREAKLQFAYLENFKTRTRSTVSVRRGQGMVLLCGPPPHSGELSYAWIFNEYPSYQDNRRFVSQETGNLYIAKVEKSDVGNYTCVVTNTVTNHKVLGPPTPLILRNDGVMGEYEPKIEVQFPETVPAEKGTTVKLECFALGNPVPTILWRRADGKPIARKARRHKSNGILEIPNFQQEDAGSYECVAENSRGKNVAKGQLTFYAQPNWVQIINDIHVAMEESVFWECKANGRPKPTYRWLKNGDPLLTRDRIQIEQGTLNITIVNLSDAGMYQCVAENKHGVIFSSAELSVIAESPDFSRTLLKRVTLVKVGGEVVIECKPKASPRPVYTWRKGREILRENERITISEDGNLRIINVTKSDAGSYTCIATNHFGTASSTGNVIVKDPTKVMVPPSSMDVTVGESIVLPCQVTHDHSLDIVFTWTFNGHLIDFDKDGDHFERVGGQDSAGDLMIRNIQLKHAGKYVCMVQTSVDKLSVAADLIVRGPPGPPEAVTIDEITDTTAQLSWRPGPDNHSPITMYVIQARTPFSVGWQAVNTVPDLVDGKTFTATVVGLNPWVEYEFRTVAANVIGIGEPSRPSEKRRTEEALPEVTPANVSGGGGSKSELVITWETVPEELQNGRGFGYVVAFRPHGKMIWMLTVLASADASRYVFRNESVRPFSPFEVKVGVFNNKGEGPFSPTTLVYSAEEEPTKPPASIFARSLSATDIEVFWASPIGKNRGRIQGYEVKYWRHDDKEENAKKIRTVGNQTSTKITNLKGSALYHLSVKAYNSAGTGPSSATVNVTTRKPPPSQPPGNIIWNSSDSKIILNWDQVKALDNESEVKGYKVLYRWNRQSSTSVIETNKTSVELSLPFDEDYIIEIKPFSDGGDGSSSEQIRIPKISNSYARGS


Target: T1, mouse CNTN4 overexpressed on 293F cells
Assay: FACS, scFv periplasm on mouse CNTN4-overexpressing 293F cells, PE anti-His detection

Binder | EC50 [nM] | Top MFI [MFI]
A108 scFv (scFv, V domains shown) VH: not shown VL: ELTQDPAVSVALGQTVRITCSGSSGSYGWYQQKPGQAPVLVIYDNTNRPSGIPDRFSGSSSGNTASLTITGAQAEDEADYYCGGYDGSTDVFGGGTKLTVL | 20.2 | 2840
A110 scFv (scFv, V domains shown) VH: not shown VL: ELTQDPAVSVALGQTVRITCSGSSGSYGWYQQKPGQAPVLVIYDNTNRPSGIPDRFSGSSSGNTASLTITGAQAEDEADYYCGGYDGSTDVFGGGTKLTVL | 20.1 | 2150
A102 scFv (scFv, V domains shown) VH: not shown VL: ELTQDPAVSVALGQTVRITCSGSSGSYGWYQQKPGQAPVLVIYDNTNRPSGIPDRFSGSSSGNTASLTITGAQAEDEADYYCGGYDGSTDVFGGGTKLTVL | 17.3 | 2110
A113 scFv (scFv, V domains shown) VH: not shown VL: ELTQDPAVSVALGQTVRITCSGSSGSYGWYQQKPGQAPVLVIYDNTNRPSGIPDRFSGSSSGNTASLTITGAQAEDEADYYCGGYRGSTDVFGGGTKLTVL | 45.8 | 1100
A112 scFv (scFv, V domains shown) VH: not shown VL: ELTQDPAVSVALGQTVRITCSGRSGSYGWYQQKPGQAPVLVIYDNTNRPSGIPDRFSGSSSGNTASLTITGAQAEDEADYYCGGYDGSTDVFGGGTKLTVL | 32.5 | 1860
A114 scFv (scFv, V domains shown) VH: not shown VL: ELTQDPAVSVALGQTVRITCSGSSGSYGWYQQKPGQAPVLVIYDNTNRPSGIPDRFSGSSSGNTASLTITGAQAEDEADYYCGGYWGSTDVFGGGTKLTVL | 7.6 | 2260

Continued by falling EC50, values first:

EC50 [nM] | Top MFI [MFI] | Binder
29.4 | 2050 | A104 scFv (scFv, V domains shown) VH: not shown VL: ELTQDPAVSVALGQTVRITCSGSSGSYGWYQQKPGQAPVLVIYDNTNRPSGIPDRFSGSSSGNTASLTITGAQAEDEADYYCGGYDGSTDVFGGGTKLTVL
12 | 2740 | A103 scFv (scFv, V domains shown) VH: not shown VL: ELTQDPAVSVALGQTVRITCSGSSGSYGWYQQKPGQAPVLVIYDNTNRPSGIPDRFSGSSSGNTASLTITGAQAEDEADYYCGGYDGSTDVFGGGTKLTVL
10.4 | 4190 | A111 scFv (scFv, V domains shown) VH: not shown VL: ELTQDPAVSVALGQTVRITCSGSSGSYGWYQQKPGQAPVLVIYDNTNRPSGIPDRFSGSSSGNTASLTITGAQAEDEADYYCGGYDGSTDVFGGGTKLTVL
8.3 | 2830 | A109 scFv (scFv, V domains shown) VH: not shown VL: ELTQDPAVSVALGQTVRITCSGSSGSYGWYQQKPGQAPVLVIYDNTNRPSGIPDRFSGSSSGNTASLTITGAQAEDEADYYCGGYDGSTDVFGGGTKLTVL
